# Source: US20090010911A1, “METHODS AND COMPOSITIONS FOR AFFECTING CYCLOPHILIN A REGULATION OF KINASES IN MODULATING CELLULAR ACTIVITIES” (IOWA STATE UNIVERSITY RESEARCH FOUNDATION, INC., priority 2007, published 2009)
# Target: T1, full length Itk (Mus musculus, UniProt Q03526)
# T1 construct: made in house; host or cells: Sf9 insect cells (baculovirus), co-infected 1:1 with Lck baculovirus
# T1 sequence (Q03526 1-625): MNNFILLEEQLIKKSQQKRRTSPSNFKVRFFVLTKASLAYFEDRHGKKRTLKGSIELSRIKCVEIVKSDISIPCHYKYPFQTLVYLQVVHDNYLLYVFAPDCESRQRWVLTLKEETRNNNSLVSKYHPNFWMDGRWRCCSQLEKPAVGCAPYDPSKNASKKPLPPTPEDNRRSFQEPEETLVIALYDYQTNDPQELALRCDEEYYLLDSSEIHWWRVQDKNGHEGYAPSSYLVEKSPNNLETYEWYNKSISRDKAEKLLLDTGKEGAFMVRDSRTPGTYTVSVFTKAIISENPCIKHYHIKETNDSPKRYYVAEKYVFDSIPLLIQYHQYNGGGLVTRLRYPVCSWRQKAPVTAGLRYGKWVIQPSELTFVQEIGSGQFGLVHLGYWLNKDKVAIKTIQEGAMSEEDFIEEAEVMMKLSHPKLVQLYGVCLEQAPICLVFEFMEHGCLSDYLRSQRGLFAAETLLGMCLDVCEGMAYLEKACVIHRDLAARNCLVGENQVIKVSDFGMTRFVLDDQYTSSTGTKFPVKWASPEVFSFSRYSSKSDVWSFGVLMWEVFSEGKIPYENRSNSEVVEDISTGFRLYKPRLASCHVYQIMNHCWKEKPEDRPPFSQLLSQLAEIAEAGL
# Assay: In vitro Itk kinase assay using Peptide B as the substrate (initial velocities)
# Type: biochemical
# Conditions: full length Itk
# Protocol: Substrate used in each experiment is indicated above each set of blots. 4(a) (left) Itk 32 substrate was incubated with Itk full-length enzyme as before (lane 1), or with Itk 32 domain:free Itk SH2 domain in ratios of 1:10, 1:25 or 1:50 (lanes 2-4, respectively) or equivalent ratios of PI3K N-terminal SH2 domain (lanes 5-7) and subjected to an in vitro kinase assay. […] Coomassie stain and an anti-FLAG blot (bottom panels) show protein levels. (right) The PLCγ1 SH2 domain competes with the PLCγ1 substrate in a similar manner. Lane 1 contains only Itk enzyme and PLCγ1 SH2C-Y783-substrate without additional free SH2 domain. Ratios of free SH2 domain to substrate are 1:5, 1:10 or 1:50 in lanes 2-4, respectively and equivalent ratios of PI3K SH2 domain are used in lanes 5-7. Coomassie stain of the gel and an anti-Itk blot (bottom panels) show protein levels. 4(b) Same experiment as shown in (a) using the Grb2 SH2 domain as a control. (left) Itk 32 substrate was incubated with Itk full-length enzyme (lane 1), or with Itk 32 domain:free Itk SH2 domain in ratios of 1:10 and 1:25 (lanes 2 & 3) or equivalent ratios of Grb2 SH2 domain (lanes 4 & 5) and subjected to an in vitro kinase assay. […]
# The ratio of CypA to Itk varied between o and 100 times excess CypA. […] No change in Peptide B phosphorylation is detected. […]
molecule,measurement,value
"Itk SH2 domain: isolated exogenous SH2 domain of Itk, purified from bacteria (protein) EWYNKSISRDKAEKLLLDTGKEGAFMVRDSRTPGTYTVSVFTKAIISENPCIKHYHIKETNDSPKRYYVAEKYVFDSIPLLIQYHQYNGGGLVTRLRYPVCSWRQKA",levels of peptide B phosphorylation (initial velocity) with increasing concentrations of SH2 domain,do not change significantly
